Measured values taken from publication PMC8850660, “The P300 acetyltransferase inhibitor C646 promotes membrane translocation of insulin receptor protein substrate and interaction with the insulin receptor” (The Journal of Biological Chemistry, 2022).

Biological target: unphosphorylated beta subunit of the insulin receptor (IRβ), recombinant (UniProt P06213)
Assay: SPR; Biacore T200, unphosphorylated IRβ immobilised on a CM5 chip; same amounts of IRS1 or IRS2 injected together with different (nM) concentrations of C646; HBS-P buffer (10 mM Hepes, 150 mM NaCl, 0.05% P20, pH 7.4), 30 μl/min, 25 °C; global fit to 1:1 Langmuir model

Chain of unphosphorylated beta subunit of the insulin receptor (IRβ), recombinant (P06213 763-1382): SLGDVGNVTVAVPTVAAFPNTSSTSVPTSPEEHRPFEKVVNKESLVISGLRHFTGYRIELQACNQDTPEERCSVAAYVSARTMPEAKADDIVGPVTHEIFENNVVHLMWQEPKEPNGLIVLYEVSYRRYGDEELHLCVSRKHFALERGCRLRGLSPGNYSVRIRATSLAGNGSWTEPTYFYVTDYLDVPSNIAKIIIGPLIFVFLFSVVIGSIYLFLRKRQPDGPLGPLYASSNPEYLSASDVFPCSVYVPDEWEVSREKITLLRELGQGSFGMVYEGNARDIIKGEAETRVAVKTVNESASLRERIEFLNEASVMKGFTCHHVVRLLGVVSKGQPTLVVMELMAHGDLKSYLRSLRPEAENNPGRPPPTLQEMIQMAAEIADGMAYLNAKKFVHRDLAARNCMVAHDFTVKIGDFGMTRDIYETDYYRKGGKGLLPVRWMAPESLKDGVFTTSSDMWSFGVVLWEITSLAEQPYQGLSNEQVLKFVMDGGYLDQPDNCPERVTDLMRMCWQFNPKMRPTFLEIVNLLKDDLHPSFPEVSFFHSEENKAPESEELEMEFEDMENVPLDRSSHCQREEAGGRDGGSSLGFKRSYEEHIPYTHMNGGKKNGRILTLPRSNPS

Substance	KD with C646
purified IRS1 protein (insulin receptor substrate 1) (from UniProt P35569 1-1233) (natural protein)	2.86e-13
purified IRS2 protein (insulin receptor substrate 2) (from UniProt P81122 1-1321) (natural protein)	7.6e-12
